Assay results as given in patent US6518013.

Biological target: viral gp41 (HIV-1 transmembrane envelope protein) of HIV-1IIIB (HIV-1IIIB) (UniProt P04578)
Assay: cell-based or functional assay

## M41-PΔ178 (M41-P from which the DP-178 region has been deleted; gp41 residues 540-642 with Ile578Pro) (from UniProt P03377 540-642)
  Cell fusion (IC90): > 50 µM
  HIV infectivity (IC90): > 8 µM

## DP107 (synthetic peptide, residues 558 to 595 of HIV-1LAI gp41)
  Cell fusion (IC90): 1 µM
  HIV infectivity (IC90): 1 µM

## M41-P (M41 with an Ile to Pro mutation at position 578) (from UniProt P0AEX9 27-392; P03377 540-686)
  Cell fusion (IC90): 0.083 µM
  HIV infectivity (IC90): 0.066 µM

## M41 (maltose binding protein fusion of the gp41 ectodomain, residues 540-686) (from UniProt P0AEX9 27-392; P03377 540-686)
  Cell fusion (IC90): > 50 µM
  HIV infectivity (IC90): > 16 µM

## DP178 (synthetic peptide, amino acids 638 to 673 of HIV-1LAI gp41)
  Cell fusion (IC90): 0.001 µM
  HIV infectivity (IC90): 0.08 µM
